Laboratory results reported in patent US20100184709.

Molecular target: T1, Ac-LRSR-amc
T1 chain: LRSR

B1: recombinant purified GST-Malt1 protein, oligomerized by binding to glutathione sepharose (protein)
chain: MSLLGDPLQALPPSAAPTGPLLAPPAGATLNRLREPLLRRLSELLDQAPEGRGWRRLAELAGSRGRLRLSCLDLEQCSLKVLEPEGSPSLCLLKLMGEKGCTVTELSDFLQAMEHTEVLQLLSPPGIKITVNPESKAVLAGQFVKLCCRATGHPFVQYQWFKMNKEIPNGNTSELIFNAVHVKDAGFYVCRVNNNFTFEFSQWSQLDVCDIPESFQRSVDGVSESKLQICVEPTSQKLMPGSTLVLQCVAVGSPIPHYQWFKNELPLTHETKKLYMVPYVDLEHQGTYWCHVYNDRDSQDSKKVEIIIGRTDEAVECTEDELNNLGHPDNKEQTTDQPLAKDKVALLIGNMNYREHPKLKAPLVDVYELTNLLRQLDFKVVSLLDLTEYEMRNAVDEFLLLLDKGVYGLLYYAGHGYENFGNSFMVPVDAPNPYRSENCLCVQNILKLMQEKETGLNVFLLDMCRKRNDYDDTIPILDALKVTANIVFGYATCQGAEAFEIQHSGLANGIFMKFLKDRLLEDKKITVLLDEVAEDMGKCHLTKGKQALEIRSSLSEKRALTDPIQGTEYSAESLVRNLQWAKAHELPESMCLKFDCGVQIQLGFAAEFSNVMIIYTSIVYKPPEIIMCDAYVTDFPLDLDIDPKDANKGTPEETGSYLVSKDLPKHCLYTRLSSLQKLKEHLVFTVCLSYQYSGLEDTVEDKQEVNVGKPLIAKLDMHRGLGRKTCFQTCLMSNGPYQSSAATSGGAGHYHSLQDPFHGVYHSHPGNPSNVTPADSCHCSRTPDAFISSFAHHASCHFSRSNVPVETTDEIPFSFSDRLRISEK
LRSR-amc cleavage activity of recombinant enzyme (fluorescence): recombinant purified GST-Malt1 protein, oligomerized by binding to glutathione sepharose, was tested for LRSR-amc clavage activity
